{"source": "patent US12459987B2", "about": "“Monoclonal antibodies for prevention and treatment of herpes simplex viral infections” (priority 2019, dated 2025)", "molecules": {"B1": {"name": "22D10: monoclonal antibody from germinal center B cell; IgH SEQ ID NO: 24, IgL SEQ ID NO: 26 (antibody, V domains shown)", "VH": "DVQLQESGPALVKPSQTVSLTCTVTGYSITNGNHWWNWIRQVSGSKLEWLGYIRSSGSSDSNPSLKSRISITRDTSKNQLFLHLNSMTTEDIATYYCARGGGLRHYFDYWGQGTTLTVSSA", "VL": "DIQMTQSPASLSASVGDTVTITCRASGNIHNYLAWYHQKQGKSPQLLVYHAETLTDGVPSRFSGSGSGTQYSLKINSLQPEDFGSYYCQHFWSTPYTFGGGTKLEIKR", "modifications": "22D10 heavy chain; 22D10 light chain"}, "B2": {"name": "HSV010-28: gB-1 specific mouse monoclonal IgG; IgH SEQ ID NO: 60, IgL SEQ ID NO: 62 (antibody, V domains shown)", "VH": "QIQLVQSGPELKKPGETVKISCKASGYTFTTYGMSWVKQAPGKGLKWMGWINTYSGVSTYADDFKGRFAFSLETSASTAYLQINNLKNEDTATYFCAQVNYAMDYWGQGTSVTVSSA", "VL": "DIVMTQSHKFLSTSVGDWVTITCKASQDVSTAVAWFQQKPGQSPKVLIYSASYRYTGVPDRFTGSGSGTDFTFTISSVQAEDLAVYYCQQHYSTPRTFGGGTKLEIKR", "modifications": "HSV010-28 heavy chain; HSV010-28 light chain"}, "B3": {"name": "HSV010-13: gB-1 specific mouse monoclonal IgG; IgH SEQ ID NO: 52, IgL SEQ ID NO: 54 (antibody, V domains shown)", "VH": "QVQLQQPGAELVKPGASVKLSCKASGYTFTSYWIHWVKQGPGQGLEWIGMIHPNSGITHYNEKFKTKATLTVDKSSSTAYMQLSSLTSEDSAVCYCARGSSSGSAWFAYWGQGTLVTVSAA", "VL": "DIQMTQSSSYLSESLGGRVTITCKASDHINNWLAWYQQKPGNAPRLLISGATSLETGVPSRFSGSGSGKDYTLSITSLQTEDVATYYCQQYWSSPLTFGAGTKLELKR", "modifications": "HSV010-13 heavy chain; HSV010-13 light chain"}, "B4": {"name": "HSV010-14: gB-1 specific mouse monoclonal IgG; IgH SEQ ID NO: 56, IgL SEQ ID NO: 58 (antibody, V domains shown)", "VH": "B3 VH with G40R, T58A, N61S, T66S, K67T, A92S, C94Y", "VL": "B3 VL with E13V, S26G, S94T", "modifications": "HSV010-14 heavy chain; HSV010-14 light chain"}}, "key": {"[1]": {"system": "HSV-2 G infected cell lysates", "experiment": "ELISA binding of recombinant antibodies to HSV-2 G infected cell lysates", "parameters": "species or system HSV-2 G strain", "settings": "for Binding to HSV-lysate: Table 3 summary", "description": "Binding of recombinant antibodies to HSV-2 G lysates was tested by ELISA. Both heavy and light chain V(D)J rearrangements were amplified from selected single B-cell culture wells (22D10, 32H6, 33B8, and 35H7) by standard RT-PCR. These cloned V(D)J rearrangements were introduced into expression vectors. Recombinant antibodies were obtained by co-transfection of these expression vectors into Expi293F cells. ≥4 mg of purified IgGs was obtained (not shown). […]\nBriefly, mice were vaccinated with ΔgD-2 and then 16 days after vaccination, the draining, inguinal lymph nodes were harvested. GC B cells were isolated from these tissues and were cultured in Nojima cultures. Although overall cloning efficiency of GC B cells from these (shipped) tissues was lower than those from freshly isolated tissues (6% vs. 20%), 50 GC clones were obtained that were specific to HSV-2 G strain (HSV-2 G or HSV2-G) lysate. GC B cells from inguinal lymph nodes of mice vaccinated with ΔgD-2 were sorted directly into 96-well plates (1 cell/well). These GC B cells were then cultured in the presence of NB-21.2D9 feeder cells. After culture, presence of IgG was first determined by ELISA, and then the reactivity of culture supernatant IgG against HSV-2 G lysates (HSV-2 G) and uninfected Vero lysates were tested by ELISA.\nBased on the obtained V(D)J sequences from each B-cell culture, paired heavy and light chains were re-expressed (as recombinant mouse IgG1 and IgG2c antibodies) in Expi293F cells (Kuraoka et al. Immunity 2016; DiLillo et al. Nature Medicine 2013). […] As expected, all recombinant antibodies reacted specifically with HSV-2 G lysates (FIG. 3). […] Binding of recombinant antibodies to HSV-2 G lysates was tested by ELISA. Both heavy and light chain V(D)J rearrangements were amplified from selected single B-cell culture wells (22D10, 32H6, 33B8, and 35H7) by standard RT-PCR. These cloned V(D)J rearrangements were introduced into expression vectors. Recombinant antibodies were obtained by co-transfection of these expression vectors into Expi293F cells. ≥4 mg of purified IgGs was obtained (not shown). […] These recombinant antibodies (≥4 mg each) were tested for identification of reacting antigen(s), in an in vitro FcγRIV activation assay (Promega FcγRIV ADCC Reporter Bioassay)(FIG. 4), and in vivo protection assay. […]"}, "uninfected Vero lysate": {"system": "uninfected Vero lysate", "experiment": "ELISA binding to control uninfected Vero lysate", "description": "Binding of recombinant antibodies to HSV-2 G lysates was tested by ELISA. Both heavy and light chain V(D)J rearrangements were amplified from selected single B-cell culture wells (22D10, 32H6, 33B8, and 35H7) by standard RT-PCR. These cloned V(D)J rearrangements were introduced into expression vectors. Recombinant antibodies were obtained by co-transfection of these expression vectors into Expi293F cells. ≥4 mg of purified IgGs was obtained (not shown).\nBased on the obtained V(D)J sequences from each B-cell culture, paired heavy and light chains were re-expressed (as recombinant mouse IgG1 and IgG2c antibodies) in Expi293F cells (Kuraoka et al. Immunity 2016; DiLillo et al. Nature Medicine 2013). […] As expected, all recombinant antibodies reacted specifically with HSV-2 G lysates (FIG. 3). […] Binding of recombinant antibodies to HSV-2 G lysates was tested by ELISA. Both heavy and light chain V(D)J rearrangements were amplified from selected single B-cell culture wells (22D10, 32H6, 33B8, and 35H7) by standard RT-PCR. These cloned V(D)J rearrangements were introduced into expression vectors. Recombinant antibodies were obtained by co-transfection of these expression vectors into Expi293F cells. ≥4 mg of purified IgGs was obtained (not shown). […]"}, "[2]": {"biological_target": "glycoprotein B of HSV-1 (gB-1) (Human herpesvirus 1, UniProt P10211)", "experiment": "Luminex multiplex assay, binding to gB-1", "settings": "Table 3 summary", "description": "FIGS. 9A and 9B are graphs of median fluorescence intensity (MFI) versus IgG concentration (ng/ml), showing the binding of various recombinant antibodies to gB-1 as measured by Luminex multiplex assay.\nBMPC-23 binds HSV-1 gB (gB-1). The gB-1 binding of the antibodies was determined by Luminex multiplex assay. Mixtures of antigen (gB-1)-conjugated microspheres (1,000 counts each) were added to each well of 96-well filter plates (Millipore). After washing with PBS containing 1% BSA, 0.05% Tween 20 and 0.05% NaN3, serially diluted recombinant antibodies (5E7, 19G7, 18G4, 22E10, 3A2, 17G3, 22D10, 32H6, 33B8, 25H7, BMPC-23, and S5V2-29) were added to the plates and incubated for 2 hours at room temperature, with mild agitation of the plates. Samples were diluted in PBS containing 1% cow milk, 1% BSA, 0.05% Tween 20 and 0.05% NaN3. After washing, PE goat anti-mouse IgG was added to the plates and incubated for 1 hour at room temperature with mild agitation. After washing, microspheres were resuspended in PBS containing 1% BSA, 0.05% Tween 20 and 0.05% NaN3 and fluorescent signals from each microsphere were measured in a Bio-Plex® 3D machine.\nFinding gB-1 specific HSV antibodies. After Nojima culture (single B-cell culture), HSV-specific antibodies were cloned from germinal center B cells and tested for binding to HSV-1 gB-1 by Luminex multiplex assay as described above. FIGS. 9A and 9B show the gB-1 binding results for 10 antibodies in comparison with BMPC-23. With the exception of BMPC-23, the antibodies in Table 3 were derived from germinal center B cells (lymph nodes) taken 15-17 days after primary vaccination with ΔgD-2. BMPC-23 was derived from bone marrow plasmacytes taken 2 weeks post-boost with ΔgD-2. Nucleotide sequences and amino acid sequences for the heavy-chains and light chains are shown in Table 4, as are the amino acid sequences for the light chain and heavy chain CDR1, CDR2, and CDR3."}, "HSV-2": {"system": "HSV-2", "experiment": "Passive transfer in vivo protection assay, lethal HSV-2 challenge", "parameters": "species or system mice", "description": "Mice were prime-boost immunized with ΔgD-2 and the spleens, draining lymph nodes or bone marrow were isolated. Germinal center (GC) B cells were then cultured on NB-21.2D9 cells (Nojima cultures). After culture, supernatants were screened for the presence of HSV-lysate binding IgG by ELISA. The V(D)J rearrangements amplified from selected GC B-cell cultures for the B-cell antigen receptor (BCR) repertoire analysis in GC B cell clones among individual mice were sequenced. Then, reconstituted antibodies from selected single GC B cell cultures and from single, bone marrow plasmacytes were evaluated for ability to activate the mFcγRIV in vitro and to protect mice in a passive transfer model.\nBoth IgG1 and IgG2c forms of 22D10, 33B8, and BMPC-23 antibodies (≥4 mg each) were assessed for reproducibility of in vivo protection assay, and any dependency on Ig isotype for protection. […] To test roles of Ig isotypes on ability to provide protection, IgG1 and IgG2c isotypes of these three antibodies were generated and assessed for ability to activate mFcγRIV signaling (as a measurement for ADCC), and for in vivo protection assay."}, "[3]": {"biological_target": "human herpesvirus glycoprotein B (gB) (Human herpesvirus 2, UniProt P08666)", "experiment": "Immunoprecipitation-Mass Spectrometry (IP-MS) target identification", "assay_type": "binding", "description": "FIG. 7A-7B. Immunoprecipitation-Mass Spectrometry (IP-MS) was performed to identify the binding targets of 22D10, 33B8, and BMPC-23 antibodies.\nIP-MS was performed to identify the targets of 22D10, 33B8, and BMPC-23 antibodies."}, "gB-1": {"biological_target": "gB-1 (Human herpesvirus 1, UniProt P10211)", "experiment": "Luminex competition: inhibition of binding of BMPC-23 human IgG to gB-1", "parameters": "species or system HSV-1", "settings": "Table 3 summary", "description": "FIGS. 10A-10G show the capacity of gB-1 specific mouse monoclonal IgG antibodies to inhibit binding of BMPC-23 human IgG antibodies to gB-1.\nFinding BMPC-like antibodies. Nine out of 10 gB-1 specific mouse monoclonal IgG antibodies in FIG. 3 were tested for their capacity to inhibit binding of BMPC-23 human IgG antibodies to gB-1. Serially diluted, gB-1 specific mouse monoclonal antibodies or irrelevant, control mouse antibody (H33Lγ1) were incubated with gB-1 conjugated Luminex beads. After incubation, fixed concentration (2 ng/ml) of BMPC-23 human IgG antibodies were added to each well. After washing, mouse anti-human lgG-PE was added to detect binding of human BMPC-23 antibodies. […] Strong inhibition by HSV010-4 (>95% at 222 ng/ml), HSV010-7 (>90% at 222 ng/ml), and HSV010-34 (>80% at 222 ng/ml), shown in FIGS. 10B, 10F, and 10G, respectively, indicates these antibodies bind epitopes on gB-1 closely overlapping with the one recognized by BMPC-23. Therefore, similar protective efficacy as BMPC-23 is expected from these antibodies (experiments in progress). […] Protective efficacy of these antibodies need to be tested (experiments in progress)."}}, "note": "Substitutions are numbered along the chain they refer to. “Also recorded” adds a separate entry of the source."}
{"molecule": "B1", "values": [{"measurement": "Binding of recombinant antibodies to HSV-2 G lysates", "setting": "[1]; ELISA, recombinant antibodies expressed in Expi293F cells", "result": "Retention of HSV-2 G lysate-binding"}, {"measurement": "Binding to HSV-lysate", "setting": "[1]", "result": "Yes"}, {"measurement": "Binding to control, uninfected Vero lysate", "setting": "uninfected Vero lysate", "result": "did not bind"}, {"measurement": "Target antigens", "setting": "[2]", "result": "(not gB)"}, {"measurement": "Mice protected from lethal challenge", "setting": "HSV-2; IgG2c version, overall results from 2 independent experiments, passive transfer", "result": "5/10"}, {"measurement": "in vivo protection", "setting": "HSV-2; Table 3 summary", "result": "Yes"}, {"measurement": "Protection against lethal HSV-2 challenge", "setting": "HSV-2; as IgG2c, passive transfer, overall survival, epithelial and neurological assays", "result": "significant protection; also recorded: provides protection"}, {"measurement": "Binding target identified by IP-MS", "setting": "[3]", "result": "human herpesvirus glycoprotein B (gB)"}]}
{"molecule": "B2", "values": [{"measurement": "Binding to HSV-lysate", "setting": "[1]", "result": "Yes"}, {"measurement": "Target antigens", "setting": "[2]", "result": "gB"}, {"measurement": "Competition with BMPC-23", "setting": "gB-1", "result": "Weak"}]}
{"molecule": "B3", "values": [{"measurement": "Binding to HSV-lysate", "setting": "[1]", "result": "Yes"}, {"measurement": "Target antigens", "setting": "[2]", "result": "gB"}, {"measurement": "Competition with BMPC-23", "setting": "gB-1", "result": "Weak"}]}
{"molecule": "B4", "values": [{"measurement": "Binding to HSV-lysate", "setting": "[1]", "result": "Yes"}, {"measurement": "Target antigens", "setting": "[2]", "result": "gB"}, {"measurement": "Competition with BMPC-23", "setting": "gB-1", "result": "Weak"}]}
